Drawing on article PMC6168507 (2018), this text covers Kd for 1 molecule.

For the experiment, the target named is LRP-1 (Homo sapiens, UniProt Q07954). The experiment is described as follows: ELISA.
Chain of LRP-1 (Q07954 20-4544): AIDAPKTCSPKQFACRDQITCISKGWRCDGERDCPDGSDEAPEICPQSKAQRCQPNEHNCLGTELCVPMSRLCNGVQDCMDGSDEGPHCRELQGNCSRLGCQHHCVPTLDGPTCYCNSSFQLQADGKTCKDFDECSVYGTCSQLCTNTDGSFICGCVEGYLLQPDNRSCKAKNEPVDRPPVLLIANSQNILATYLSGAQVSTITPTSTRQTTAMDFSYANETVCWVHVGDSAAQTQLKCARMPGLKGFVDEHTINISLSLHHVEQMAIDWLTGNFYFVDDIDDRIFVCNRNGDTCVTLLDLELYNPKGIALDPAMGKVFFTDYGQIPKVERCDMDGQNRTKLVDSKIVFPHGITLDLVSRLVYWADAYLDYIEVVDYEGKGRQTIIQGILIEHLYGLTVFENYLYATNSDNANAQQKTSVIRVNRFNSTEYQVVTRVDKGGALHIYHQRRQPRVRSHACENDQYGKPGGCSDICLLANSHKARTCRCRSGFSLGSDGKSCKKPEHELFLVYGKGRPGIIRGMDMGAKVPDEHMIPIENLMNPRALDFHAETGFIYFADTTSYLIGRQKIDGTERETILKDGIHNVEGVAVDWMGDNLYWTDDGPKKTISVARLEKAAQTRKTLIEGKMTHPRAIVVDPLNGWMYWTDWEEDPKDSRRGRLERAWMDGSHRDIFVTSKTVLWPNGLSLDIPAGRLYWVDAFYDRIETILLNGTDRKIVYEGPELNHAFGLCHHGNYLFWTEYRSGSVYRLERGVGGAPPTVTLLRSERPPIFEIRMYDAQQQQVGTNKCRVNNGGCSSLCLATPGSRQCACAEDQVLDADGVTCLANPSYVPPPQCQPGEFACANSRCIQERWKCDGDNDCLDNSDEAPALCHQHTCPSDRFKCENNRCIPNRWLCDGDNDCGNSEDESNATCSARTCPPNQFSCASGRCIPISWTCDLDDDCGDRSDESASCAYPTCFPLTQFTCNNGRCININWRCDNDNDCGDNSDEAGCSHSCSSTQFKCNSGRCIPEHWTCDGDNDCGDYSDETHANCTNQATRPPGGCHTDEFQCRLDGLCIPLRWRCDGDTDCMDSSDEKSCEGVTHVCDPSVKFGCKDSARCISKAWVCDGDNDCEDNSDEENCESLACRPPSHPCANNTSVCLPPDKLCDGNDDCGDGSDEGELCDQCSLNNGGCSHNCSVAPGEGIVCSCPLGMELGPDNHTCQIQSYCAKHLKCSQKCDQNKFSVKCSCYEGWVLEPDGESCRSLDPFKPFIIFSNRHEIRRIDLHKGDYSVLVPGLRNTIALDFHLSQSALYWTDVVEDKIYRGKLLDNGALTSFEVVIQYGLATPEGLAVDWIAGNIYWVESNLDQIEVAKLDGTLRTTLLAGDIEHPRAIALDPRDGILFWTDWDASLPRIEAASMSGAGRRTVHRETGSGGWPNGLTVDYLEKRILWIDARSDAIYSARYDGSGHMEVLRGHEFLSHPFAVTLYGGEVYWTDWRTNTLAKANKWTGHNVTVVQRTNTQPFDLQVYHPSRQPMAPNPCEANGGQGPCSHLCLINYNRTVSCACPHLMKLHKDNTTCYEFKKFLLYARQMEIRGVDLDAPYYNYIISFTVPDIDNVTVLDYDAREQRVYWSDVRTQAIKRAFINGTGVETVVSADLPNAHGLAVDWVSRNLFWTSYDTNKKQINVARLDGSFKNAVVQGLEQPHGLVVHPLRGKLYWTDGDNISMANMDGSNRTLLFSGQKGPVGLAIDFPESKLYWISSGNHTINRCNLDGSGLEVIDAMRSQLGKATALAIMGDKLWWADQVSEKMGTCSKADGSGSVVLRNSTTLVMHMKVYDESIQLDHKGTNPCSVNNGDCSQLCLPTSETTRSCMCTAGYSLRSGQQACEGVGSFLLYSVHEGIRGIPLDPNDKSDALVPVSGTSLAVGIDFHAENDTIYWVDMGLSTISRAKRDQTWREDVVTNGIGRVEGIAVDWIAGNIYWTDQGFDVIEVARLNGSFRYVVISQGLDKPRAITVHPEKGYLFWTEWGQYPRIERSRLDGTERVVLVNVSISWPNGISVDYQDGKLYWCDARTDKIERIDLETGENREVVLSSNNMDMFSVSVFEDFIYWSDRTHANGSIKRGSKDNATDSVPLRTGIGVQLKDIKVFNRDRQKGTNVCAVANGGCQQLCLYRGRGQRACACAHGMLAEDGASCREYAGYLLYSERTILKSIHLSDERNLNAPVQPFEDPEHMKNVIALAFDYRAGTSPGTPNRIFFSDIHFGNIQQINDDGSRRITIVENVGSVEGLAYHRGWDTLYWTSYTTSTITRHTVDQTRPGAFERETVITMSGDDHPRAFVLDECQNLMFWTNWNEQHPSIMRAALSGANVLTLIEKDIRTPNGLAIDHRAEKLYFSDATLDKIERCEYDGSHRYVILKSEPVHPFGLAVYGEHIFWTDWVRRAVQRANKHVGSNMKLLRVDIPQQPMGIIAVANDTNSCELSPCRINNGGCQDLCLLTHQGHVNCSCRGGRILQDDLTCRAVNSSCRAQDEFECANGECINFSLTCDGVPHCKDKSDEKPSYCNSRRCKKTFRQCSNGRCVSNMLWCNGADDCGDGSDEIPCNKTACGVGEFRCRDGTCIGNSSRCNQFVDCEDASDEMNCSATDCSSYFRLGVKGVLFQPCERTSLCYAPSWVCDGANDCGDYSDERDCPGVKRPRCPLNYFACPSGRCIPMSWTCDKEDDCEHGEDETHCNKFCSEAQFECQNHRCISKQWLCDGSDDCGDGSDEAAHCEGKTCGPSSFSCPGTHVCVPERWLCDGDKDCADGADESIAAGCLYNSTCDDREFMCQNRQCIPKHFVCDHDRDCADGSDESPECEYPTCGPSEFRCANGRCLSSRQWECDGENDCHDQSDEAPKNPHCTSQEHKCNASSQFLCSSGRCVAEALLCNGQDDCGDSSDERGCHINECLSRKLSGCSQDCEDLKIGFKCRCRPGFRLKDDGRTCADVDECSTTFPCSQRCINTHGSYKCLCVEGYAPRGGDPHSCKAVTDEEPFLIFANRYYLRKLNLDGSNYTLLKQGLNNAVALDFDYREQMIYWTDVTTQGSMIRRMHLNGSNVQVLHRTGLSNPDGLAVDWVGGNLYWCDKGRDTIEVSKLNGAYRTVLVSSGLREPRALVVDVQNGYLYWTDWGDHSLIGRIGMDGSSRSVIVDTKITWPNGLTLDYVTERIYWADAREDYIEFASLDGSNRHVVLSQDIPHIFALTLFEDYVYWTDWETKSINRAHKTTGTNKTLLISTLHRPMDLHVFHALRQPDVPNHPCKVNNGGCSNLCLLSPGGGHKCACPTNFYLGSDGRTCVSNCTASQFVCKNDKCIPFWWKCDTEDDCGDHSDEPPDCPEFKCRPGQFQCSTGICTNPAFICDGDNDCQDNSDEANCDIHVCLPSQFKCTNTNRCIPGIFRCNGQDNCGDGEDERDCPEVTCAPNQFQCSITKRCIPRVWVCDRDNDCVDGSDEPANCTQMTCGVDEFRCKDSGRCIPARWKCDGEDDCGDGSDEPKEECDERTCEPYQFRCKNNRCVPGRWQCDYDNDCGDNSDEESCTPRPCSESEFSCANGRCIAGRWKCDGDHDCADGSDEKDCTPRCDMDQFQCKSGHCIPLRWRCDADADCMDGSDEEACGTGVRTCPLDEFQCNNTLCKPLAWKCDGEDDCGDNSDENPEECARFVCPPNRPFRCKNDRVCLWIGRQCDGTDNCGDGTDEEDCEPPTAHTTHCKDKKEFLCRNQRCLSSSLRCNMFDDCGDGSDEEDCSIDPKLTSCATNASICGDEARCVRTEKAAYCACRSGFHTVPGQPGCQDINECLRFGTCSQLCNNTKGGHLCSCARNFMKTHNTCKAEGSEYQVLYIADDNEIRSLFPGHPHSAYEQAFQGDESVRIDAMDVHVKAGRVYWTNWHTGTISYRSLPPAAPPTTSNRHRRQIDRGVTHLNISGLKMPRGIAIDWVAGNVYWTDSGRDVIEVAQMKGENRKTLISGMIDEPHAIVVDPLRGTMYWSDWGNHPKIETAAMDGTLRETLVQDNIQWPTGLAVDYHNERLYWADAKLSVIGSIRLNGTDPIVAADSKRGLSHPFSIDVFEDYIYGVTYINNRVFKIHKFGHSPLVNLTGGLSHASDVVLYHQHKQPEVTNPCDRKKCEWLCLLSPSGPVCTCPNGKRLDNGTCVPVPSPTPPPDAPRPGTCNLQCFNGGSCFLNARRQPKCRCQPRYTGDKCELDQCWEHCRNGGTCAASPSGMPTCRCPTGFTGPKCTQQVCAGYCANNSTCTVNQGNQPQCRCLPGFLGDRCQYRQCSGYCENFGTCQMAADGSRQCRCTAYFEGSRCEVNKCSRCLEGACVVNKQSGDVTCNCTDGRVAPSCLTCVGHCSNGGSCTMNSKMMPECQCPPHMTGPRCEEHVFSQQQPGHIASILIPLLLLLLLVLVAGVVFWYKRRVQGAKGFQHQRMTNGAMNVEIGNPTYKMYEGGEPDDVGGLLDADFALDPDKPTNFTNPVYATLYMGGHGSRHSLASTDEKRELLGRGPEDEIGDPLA

B1: TIMP-1 (protein)
chain: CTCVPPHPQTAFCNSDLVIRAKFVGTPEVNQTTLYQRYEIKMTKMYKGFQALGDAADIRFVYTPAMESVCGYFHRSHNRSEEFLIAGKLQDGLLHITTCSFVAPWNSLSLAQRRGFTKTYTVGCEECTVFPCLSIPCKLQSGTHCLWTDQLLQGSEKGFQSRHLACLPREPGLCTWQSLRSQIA
For orientation: Kd means the free concentration of one partner at which half of the binding sites on the other are occupied at equilibrium, for simple one-to-one binding. Read a low Kd as higher affinity. In the case of B1, the dissociation constant (Kd) is 16 nM.
